In experiment [1] the target is PHB domain of B. subtilis YuaG (FloT) (Bacillus subtilis). Put plainly: SEC; Superose 6 10/300 GL, buffer A (50 mM TrisHCl pH 7.5, 150 mM NaCl, 5 mM MgCl2), RT; column calibrated with the BIO-RAD Gel Filtration Standard; fractions checked by SDS-PAGE and anti-His immunoblot. On the technique in general: Size exclusion chromatography separates by hydrodynamic size, large species first.

For experiment [2] the target is unchanged. Put plainly: SDS-PAGE (SDS-resistant oligomers); purified PHB domain without cross-linking on denaturing SDS-PAGE; colloidal Coomassie blue staining or anti-His immunoblot. In general terms: A western blot detects proteins with antibodies after separation by electrophoresis.
The target is the same in experiment [3]. The experiment can be described thus: native gel or EMSA; blue native PAGE of the isolated PHB domain, according to Wittig et al.

Where “and” joins values, the source holds several entries; their conditions need not be identical. Equal values may be shown once.

As a reminder, the stoichiometry N is the number of molecules, sites or subunits per partner or assembly. As to “PHB domain of B. subtilis YuaG (FloT) (domain or fragment)”, the stoichiometry N in experiment [1] was 14.8; in experiment [2], 4 and 8; in experiment [3] it was 14.

(Values after PMC4312047.)
